{
  "source": "paper PMC13638050",
  "key": {"[1]": {"target": "influenza B/Lee/1940 (B/Lee40) HA (influenza B virus B/Lee/1940)", "sequence (P03460 16-552 limits assumed)": "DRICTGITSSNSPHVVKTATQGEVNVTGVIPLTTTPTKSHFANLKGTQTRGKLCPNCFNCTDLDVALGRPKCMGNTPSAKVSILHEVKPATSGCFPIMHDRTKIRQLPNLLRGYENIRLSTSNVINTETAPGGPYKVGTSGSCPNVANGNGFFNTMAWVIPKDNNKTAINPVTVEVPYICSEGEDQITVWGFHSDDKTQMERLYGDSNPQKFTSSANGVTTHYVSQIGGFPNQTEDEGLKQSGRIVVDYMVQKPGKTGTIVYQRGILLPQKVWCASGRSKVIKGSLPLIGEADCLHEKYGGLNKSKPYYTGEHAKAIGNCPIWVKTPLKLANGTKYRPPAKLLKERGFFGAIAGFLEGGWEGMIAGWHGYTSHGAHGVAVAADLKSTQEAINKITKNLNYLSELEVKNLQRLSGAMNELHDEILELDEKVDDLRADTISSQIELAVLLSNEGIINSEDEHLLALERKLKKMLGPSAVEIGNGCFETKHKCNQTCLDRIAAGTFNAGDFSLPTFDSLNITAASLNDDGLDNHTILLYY", "test": "BLI"}, "[2]": {"target": "H3N2 A/Singapore/INFIMH-16-0019/2016 (H3/Sing16) HA (influenza A virus H3N2 A/Singapore/INFIMH-16-0019/2016)", "test": "BLI"}},
  "data": [
    {"substance": "somatic CR9114 Fab", "values": [
      {"measurement": "Kd", "setting": "[1]", "result": 110, "unit": "nM"},
      {"measurement": "Kd", "setting": "[2]", "result": 36, "unit": "nM"}
    ]}
  ]
}
